Assay results published in patent publication US20120270234A1, “DDR2 PROTEIN WITH ACTIVATED KINASE ACTIVITY AND PREPARATION METHOD THEREOF” (KOREA INSTITUTE OF SCIENCE AND TECHNOLOGY, priority 2003, published 2012).
“Also recorded” adds a separate entry of the source.

What was measured:
c-Fyn tyrosine kinase = biological target: T1, c-Fyn tyrosine kinase (Homo sapiens, UniProt P06241); assay: tyrosine phosphorylation on co-expression with c-Fyn in insect cells, western blotting with phosphorylated tyrosine specific antibody; type: cell-based; conditions: FIG. 2
T1 construct: Full length human c-Fyn gene was per amplified from the vector containing full length human c-Fyn purchased from Invitrogen, USA; host or cells: sf9 insect cells co-infected with two recombinant baculoviruses
T1 sequence (P06241 2-482 isoform P06241-3): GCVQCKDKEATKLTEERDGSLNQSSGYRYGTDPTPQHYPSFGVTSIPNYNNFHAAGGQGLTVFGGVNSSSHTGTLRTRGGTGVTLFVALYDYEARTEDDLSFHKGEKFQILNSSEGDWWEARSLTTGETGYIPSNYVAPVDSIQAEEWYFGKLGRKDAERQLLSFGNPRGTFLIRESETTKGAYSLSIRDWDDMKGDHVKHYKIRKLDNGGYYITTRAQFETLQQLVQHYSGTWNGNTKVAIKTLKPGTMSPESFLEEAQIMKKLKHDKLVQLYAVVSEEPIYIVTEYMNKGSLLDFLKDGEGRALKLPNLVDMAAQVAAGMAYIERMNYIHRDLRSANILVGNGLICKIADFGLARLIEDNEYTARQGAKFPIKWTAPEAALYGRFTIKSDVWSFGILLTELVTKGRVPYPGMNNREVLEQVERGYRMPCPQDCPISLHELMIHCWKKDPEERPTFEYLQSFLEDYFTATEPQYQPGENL
From the text: In order to check the expression of c-Src protein in the case of co-expressing the GST-DDR2 CKD and the c-Src (lane 2), a portion of lysate of the host cells is undergone a SDS-PAGE and then a western blotting using a c-Src protein specific antibody. Likewise in order to check the expression of c-Fyn protein in the case of co-expressing the GST-DDR2 CKD and the c-Fyn (lane 3), a portion of lysate of the host cells is undergone a SDS-PAGE and then a western blotting using a c-Fyn protein specific antibody.
The presence of equal amount of protein at each lane was estimated by coomassie brilliant blue (CBB) staining. The co-expression of c-Src or c-Fyn protein was confirmed by western blotting on aliquot of total cell lysate using human c-Src or c-Fyn specific antibody.
(§1) Phospho-tyrosine specific antibody was purchased from Cell Signaling Inc, USA. Specific antibodies to human c-Src, human c-Fyn, and she were obtained from SantaCruz, USA. Samples were boiled for 2 min in 1× lameli sample buffer, and loaded in 10% SDS-PAGE. Proteins were transferred to Immobilon-P membrane (Millipore) and blacked by 10% skim milk in TBS for an hour. The membrane was immunoblotted with antibodies for 2 hours and subsequently washed with 1×TBS five times. Then it was incubated with HRP conjugated secondary antibodies for an hour and protein bands were detected using chemiluminescence kit (Amersham).

shc protein = assay: in vitro shc binding assay using HSC T6 cell lysate; parameters: species or system human
From the text: One of the characteristic features of tyrosine phosphorylated cytosolic domain of receptor tyrosine kinase is to recruit the signaling proteins such as shc protein. This complex formation between the cytosolic domain of receptor tyrosine kinase protein and signaling proteins such as shc is important for the cellular transmission of the activated receptor tyrosine kinase signal. It has been observed in HSC T6 liver stellate cells and fibroblast cells that shc, one of signaling protein containing PTB domain binds to activated DDR2 cytosolic domain. The present inventors examined whether the invented DDR2 cytosolic tyrosine kinase domain protein with induced tyrosine phosphorylation for example, by the method of co-expression with c-Src in sf 9 cells or with the mutation of tyrosine 740 to phenylalanine 740 can be used for in vitro shc binding assay. In FIG. 15, the purified GST-DDR2 cytosolic domain from sf 9 cells with and without Src coinfection were used for in vitro shc binding assay. Each protein was subject to autophosphorylation reaction at 30° C. for 15 min, and a mock-autophosphylation reaction as well where gamma-S-ATP was used instead of ATP in the reaction buffer before they were used for in vitro shc binding assay using HSC T6 cell lysate.
The purified GST-DDR2 CKD proteins without or with tyrosine phosphorylation by Src were subject to in vitro shc binding assay after autophosphorylation reaction or a mock-autophosphorylation reaction as described in materials and methods. The bound proteins on the glutathione bead were eluted by boiling in 1× lameli buffer. The presence of shc in the eluate was measured by western blotting using shc antibody and the accumulation of tyrosine phosphorylation at GST-DDR2 CKD proteins resulted from autophosphorylation was shown by western blotting using P-tyro antibody. The presence of an equal amount of GST-DDR2 CKD proteins in each eluate was confirmed by CBB staining. ‘Bead only’ means that no GST-DDR2 CKD protein was applied on glutathione bead as a control.
The same type of experiment was done as FIG. 15 using purified GST-DDR2 CKD phosphorylated by src and its mutant proteins of Y740F and Y736/740/741F.
As a source of shc protein, total lysate of HSC T6 cells was used. For the preparation of the lysate, 2×10^7 HSC T6 cells were harvested and lysed by sonication in 5 ml of lysis buffer consisting of 20 mM Tris-HCl (pH8.0), 0.1M NaCl, 5 mM DTT, 10 mM NaF, […], 0.02% IGE-PAL (Sigma) and a proteinase inhibitor cocktail pellet (Roche). The supernatant was obtained by centrifugation in 15,000 rpm for 10 min at 4° C. and used for the following shc binding assay. Various GST-DDR2 KD proteins bound to glutathione bead were obtained as described above. […]

c-Src tyrosine kinase = biological target: T2, c-Src tyrosine kinase (Mus musculus, UniProt P05480, P80A); assay: tyrosine phosphorylation on co-expression with c-Src in insect cells, western blotting with phosphorylated tyrosine specific antibody; type: cell-based, Spodoptera frugiperda; conditions: glutathione bead purified, FIG. 2, FIG. 4
T2 construct: Full length human c-Src gene was per amplified from the vector of pUSE human O-Src wild (Upstate Biotechnology); host or cells: sf9 insect cells co-infected with two recombinant baculoviruses
From the text: The results shown in FIG. 4 were obtained by co-expressing a fused protein GST-DDR2 CKD, a fused protein (GST-DDR1b CKD) of the GST and the human DDR1b cytosolic tyrosine kinase domain, a fused protein (GST-Akt1) of the GST and the full-length mouse Akt1 kinase and a fused protein (GST-CDK4) of the GST and the full-length human CDK4 kinase with the c-Src protein without GST tagging in insect cells, respectively; purifying the respective expressed product using glutathione beads; performing SDS-PAGE; and performing the western blotting test using a phosphorylated tyrosine specific antibody and coomassie staining.
The results shown in FIG. 4 have been obtained by co-expressing the full-length c-Src protein together with the fused proteins, GST-DDR2 CKD, GST-DDR1b CKD, GST-Akt1 and GST-CDK4, respectively; in sf9 cells, then performing a western blotting test on each purified GST tagged protein using a phosphorylated tyrosine specific antibody. The presence of a similar amount of each purified GST tagged protein was shown by CBB staining.
GST tagged kinase defective DDR2 cytosolic domain (GST-kd-DDR2-CKD) with intact three tyrosines in the activation loop or with various phenylalanine mutations described in the text were co-expressed with Src in sf9 cells. GST tagged proteins were purified and the same amount of proteins estimated by CBB staining was used for western blotting using P-tyro antibody.
as §1

sf9 cells = assay: tyrosine phosphorylation by H2O2 processing of expressing insect cells, western blotting with phosphorylated tyrosine specific antibody; type: cell-based, Spodoptera frugoperda; conditions: 200 μM H2O2 for half of an hour; FIG. 2, FIG. 5
Description: The results shown in FIG. 5 were obtained by solely expressing the fused proteins, GST-DDR2 CKD, the GST-DDR1b CKD, the GST-CDK4 and the GST-CDK1, respectively, in insect cells; processing with 200 μM of H2O2 for half of an hour; purifying the respective expressed product using glutathione beads; performing the SDS-PAGE; and performing the western blotting test using an phosphorylated tyrosine specific antibody and coomassie staining.
The results shown in FIG. 5 have been obtained by solely expressing GST-DDR2 CKD, GST-DDR1b CKD, GST-CDK4 and GST-CDK1, respectively in sf9 cells; processing each expressed cells with H2O2 of 200 uM for half of an hour or not; and then purifying the GST tagged protein followed by a western blotting using a phosphorylated tyrosine specific antibody. The presence of a similar amount of each purified GST tagged protein was shown by CBB staining.
The recombinant baculoviruses having the GST-DDR2 CKD coding gene were transfected into sf9 insect cells, by setting MOU to 10 and the cells were cultured for 24 to 72 hours, to express the protein. […], at the concentration of 200 μM was added to the cultured cells. The cells were left for half of an hour, and collected. The collected cells were lysed and the GST-DDR2 CKD was purified from the expressed products, using the glutathione agarose bead column chromatography. The purified protein was subjected to an electrophoresis in 10% polyacrylamaid gel.
After completing the electrophoresis, the protein developed in the gel was transferred to nitrocellulose, and then subjected to a western blotting using a phosphorylated tyrosine specific antibody (Cell signaling Inc, USA), to measure the chemiluminescence signal using x-ray film. For the control, the chemical luminescence of the case without H2O2 processing was measured by the method as mentioned above.

B1: GST-DDR2 CKD: fusion protein of glutathione S transferase and human DDR2 cytosolic tyrosine kinase domain, solely expressed in insect cells (protein)
chain: MTVSLSLPSDSSMFNNNRSSSPSEQGSNSTYDRIFPLRPDYQEPSRLIRKLPEFAPGEEESGCSGVVKPVQPSGPEGVPHYAEADIVNLQGVTGGNTYSVPAVTMDLLSGKDVAVEEFPRKLLTFKEKLGEGQFGEVHLCEVEGMEKFKDKDFALDVSANQPVLVAVKMLRADANKNARNDFLKEIKIMSRLKDPNIIHLLSVCITDDPLCMITEYMENGDLNQFLSRHEPPNSSSSDVRTVSYTNLKFMATQIASGMKYLSSLNFVHRDLATRNCLVGKNYTIKIADFGMSRNLYSGDYYRIQGRAVLPIRWMSWESILLGKFTTASDVWAFGVTLWETFTFCQEQPYSQLSDEQVIENTGEFFRDQGRQTYLPQPAICPDSVYKLMLSCWRRDTKNRPSFQEIHLLLLQQGDE
modifications: left off: a dimerising Fc or GST
notes: fusion protein of glutathione S transferase and human DDR2 cytosolic tyrosine kinase domain, solely expressed in insect cells
tyrosine phosphorylation induced by co-expression with c-Fyn (c-Fyn tyrosine kinase): remarkably induced | shc binding after in vitro autophosphorylation reaction (shc protein; autophosphorylation at 30° C. for 15 min, FIG. 15, FIG. 16): failure to show an improved shc binding | shc binding before in vitro autophosphorylation (shc protein; mock-autophosphorylation with gamma-S-ATP, FIG. 15): did not attract shc protein binding significantly | tyrosine phosphorylation induced by co-expression with c-Src (c-Src tyrosine kinase): remarkably induced; also recorded: strongly induced | tyrosine phosphorylation induced by H2O2 processing (sf9 cells): remarkably induced; also recorded: strongly induced
